Source: paper PMC4801485

Target: cyclophilin from Geobacillus kaustophilus (Geobacillus kaustophilus)
Assay: NMR line shape analysis

GSFGPDLRAGD [peptide substrate …]
koff of the trans isomer (kBA): 720 s⁻¹
kon of the trans isomer (kAB): 5.2e+06 M⁻¹ s⁻¹
